Test results taken from US20220054648A1.

Assays:
human Trop-2 (human) [1] = molecular target: human Trop-2 (human) (UniProt P09758); assay: cell binding assay on NCI-N87 cells, anti-mouse-HRP secondary, luminescence
human Trop-2 (human) [2] = molecular target: human Trop-2 (human) (UniProt P09758); assay: cell binding assay (cell line not given)

Sequence of human Trop-2 (human) (P09758 27-323): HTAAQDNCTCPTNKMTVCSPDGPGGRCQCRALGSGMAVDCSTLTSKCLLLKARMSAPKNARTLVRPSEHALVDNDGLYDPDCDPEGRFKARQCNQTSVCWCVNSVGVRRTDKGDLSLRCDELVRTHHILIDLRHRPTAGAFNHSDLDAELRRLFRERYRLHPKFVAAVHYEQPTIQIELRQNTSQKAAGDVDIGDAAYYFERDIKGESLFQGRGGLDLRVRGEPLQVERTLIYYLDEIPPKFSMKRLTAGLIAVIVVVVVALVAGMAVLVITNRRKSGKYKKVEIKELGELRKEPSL

Row | BMax (relative luminescent units) (human Trop-2 (human) [1]) | Kd (human Trop-2 (human) [2]) | Substance
1 | 8470 |  | 162-46.2 murine monoclonal antibody against human Trop-2
2 |  | 1.2 nM | hRS7-CL2-SN-38 (anti-Trop-2 ADC, hRS7 IgG conjugated to CL2-SN-38) (antibody)
3 |  | 1.2 nM | hRS7-CL2A-SN-38 (anti-Trop-2 ADC, hRS7 IgG conjugated to CL2A-SN-38) (antibody)
4 | 6020 |  | MAB650 murine monoclonal antibody against human Trop-2 (R&D Systems)
